T1: SARS-COV-2 S protein, S867-881 peptide with residue 5 (T) of SEQ ID NO: 13 replaced with alanine peptide on … (human)
T1 peptide: DEMIAQYASALLAGT

T2: SARS-COV-2 spike (S) protein peptide on HLA-DRA*01:01 / HLA-DRB1*15:02 (human)
T2 peptide: LLTDEMIAQYTSALLAGTI

T3: SARS-COV-2 spike (S) protein peptide on HLA-DRA*01:01 / HLA-DRB1*15:01 (human)
T3 peptide: PLLTDEMIAQYTSAL

T4: SARS-COV-2 spike (S) protein peptide on HLA-DRA*01:01 / HLA-DRB1*15:01 (human)
T4 peptide: DEMIAQYTSALLAGT

T5: SARS-COV-2 spike (S) protein peptide on HLA-DRA*01:01 / HLA-DRB1*15:01 (human)
T5 peptide: LPPLLTDEMIAQYTS

T6: SARS-COV-2 spike (S) protein peptide on HLA-DRA*01:01 / HLA-DRB1*15:01 (human)
T6 peptide: LLTDEMIAQYTSALLAGTI

T7: SARS-COV-2 spike (S) protein peptide on HLA-DRA*01:01 / HLA-DRB1*15:01 (human)
T7 peptide: AQYTSALLAGTITSG

T8: SARS-COV-2 spike (S) protein peptide on HLA-DRA*01:01 / HLA-DRB1*15:01 (human)
T8 peptide: PPLLTDEMIAQYTSA

T9: SARS-COV-2 spike (S) protein peptide on HLA-DRA*01:01 / HLA-DRB1*15:01 (human)
T9 peptide: YTSALLAGTITSGWT

B1: Clone 1 (TCR-017) (TCR)
alpha TRAV12-1 TRAJ12 CDR3: CVVNRGSSYKLIF
beta TRBV11-2 TRBJ2-7 CDR3: CASSQTYEQYF

Experiments:
[1] = system: CD4 positive cells and patient-derived B cells immortalized by EBV infection; assay: Restimulation assay of PBMC by S864-882 peptide, human IL-21 ELISA; type: cell-based; details: peptide 1 μg/ml; 24 hr; compared with not stimulated
[2] = system: T-cell hybridomas expressing TCRs of clonotype 1/2 (clone 1 and clone 2); type: cell-based, human
[3] = target: T1, SARS-COV-2 S protein, S867-881 peptide …; assay: activation reporter or marker
[4] = target: T2, SARS-COV-2 spike (S) protein peptide on …; assay: activation reporter or marker
[5] = target: T3, SARS-COV-2 spike (S) protein peptide on …; assay: activation reporter or marker
[6] = target: T4, SARS-COV-2 spike (S) protein peptide on …; assay: activation reporter or marker
[7] = target: T5, SARS-COV-2 spike (S) protein peptide on …; assay: activation reporter or marker
[8] = target: T6, SARS-COV-2 spike (S) protein peptide on …; assay: activation reporter or marker
[9] = target: T7, SARS-COV-2 spike (S) protein peptide on …; assay: activation reporter or marker
[10] = target: T8, SARS-COV-2 spike (S) protein peptide on …; assay: activation reporter or marker
[11] = target: T9, SARS-COV-2 spike (S) protein peptide on …; assay: activation reporter or marker

Molecule | concentration of IL-21 in the medium [1] | stimulation of clones 1 and 2, CD69 expression ([2]; APC from an individual who has DRB1*15:02 but not DRB1*15:01) | epitope determination by stimulating clones 1 and 2 with single synthesized peptide, CD69 ([2]; single peptide 1 μg/ml, 20 hr, in the presence of APC) | binding result [3] | binding result [4] | binding result [5] | binding result [6] | binding result [7] | binding result [8] | binding result [9] | binding result [10] | binding result [11]
S864-882: peptide of positions 864-882 of the SARS-CoV-2 S protein, epitope of clones 1 and 2 | higher | able to stimulate both clones 1 and 2 | determined as an epitope for both clones 1 and 2 | – | – | – | – | – | – | – | – | –
B1 | – | – | – | no recognition | recognises | no recognition | recognises | no recognition | recognises | no recognition | no recognition | no recognition

— patent publication US20240309051A1, “[…] T (TFH) CELLS […] TO SARS-COV-2 VIRUS” (priority 2021, published 2024)
